T1: CCR5 N13A, HA-tagged (human, UniProt P51681 1-352)
T1 sequence: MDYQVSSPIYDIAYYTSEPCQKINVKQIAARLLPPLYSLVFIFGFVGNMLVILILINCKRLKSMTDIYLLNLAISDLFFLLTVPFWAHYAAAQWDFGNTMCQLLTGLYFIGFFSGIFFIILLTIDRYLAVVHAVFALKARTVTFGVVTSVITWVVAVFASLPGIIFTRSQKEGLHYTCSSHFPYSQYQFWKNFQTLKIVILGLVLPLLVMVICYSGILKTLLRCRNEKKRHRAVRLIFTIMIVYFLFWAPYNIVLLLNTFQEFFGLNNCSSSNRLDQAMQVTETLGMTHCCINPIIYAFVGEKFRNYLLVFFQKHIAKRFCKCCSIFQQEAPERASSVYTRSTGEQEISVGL

T2: CCR5 R31A, HA-tagged (human, UniProt P51681 1-352)
T2 sequence: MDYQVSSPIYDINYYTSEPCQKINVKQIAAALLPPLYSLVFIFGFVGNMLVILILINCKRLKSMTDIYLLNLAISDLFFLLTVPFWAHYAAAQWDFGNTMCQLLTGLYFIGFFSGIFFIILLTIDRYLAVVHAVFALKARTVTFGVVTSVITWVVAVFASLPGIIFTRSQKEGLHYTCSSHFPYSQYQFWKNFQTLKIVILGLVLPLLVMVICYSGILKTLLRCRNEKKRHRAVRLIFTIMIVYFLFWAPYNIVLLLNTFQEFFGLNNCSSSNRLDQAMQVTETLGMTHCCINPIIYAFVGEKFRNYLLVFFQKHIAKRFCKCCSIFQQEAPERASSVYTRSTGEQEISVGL

T3: CCR5 D95A, HA-tagged (human, UniProt P51681 1-352)
T3 sequence: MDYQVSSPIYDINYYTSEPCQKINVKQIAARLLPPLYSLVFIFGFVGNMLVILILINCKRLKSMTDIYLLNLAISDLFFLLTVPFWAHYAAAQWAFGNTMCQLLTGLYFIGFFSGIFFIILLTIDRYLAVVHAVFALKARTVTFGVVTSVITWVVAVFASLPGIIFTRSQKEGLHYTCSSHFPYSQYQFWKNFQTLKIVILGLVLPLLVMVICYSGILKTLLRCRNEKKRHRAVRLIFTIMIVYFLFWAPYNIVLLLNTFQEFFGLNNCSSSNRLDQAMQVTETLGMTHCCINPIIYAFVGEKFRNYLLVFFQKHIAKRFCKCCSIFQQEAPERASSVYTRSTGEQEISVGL

T4: CCR5 Q102A, HA-tagged (human, UniProt P51681 1-352)
T4 sequence: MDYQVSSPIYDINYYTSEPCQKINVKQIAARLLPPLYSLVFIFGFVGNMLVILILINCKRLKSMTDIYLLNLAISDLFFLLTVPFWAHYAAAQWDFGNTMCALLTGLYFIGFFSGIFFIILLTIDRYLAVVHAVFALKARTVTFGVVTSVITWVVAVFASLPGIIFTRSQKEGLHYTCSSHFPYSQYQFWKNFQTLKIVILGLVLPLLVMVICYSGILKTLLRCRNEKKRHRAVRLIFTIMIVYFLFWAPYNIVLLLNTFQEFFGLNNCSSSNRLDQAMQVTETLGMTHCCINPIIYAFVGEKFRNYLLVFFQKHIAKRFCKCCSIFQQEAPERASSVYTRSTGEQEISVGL

T5: CCR5 K171A/E172A, HA-tagged (human, UniProt P51681 1-352)
T5 sequence: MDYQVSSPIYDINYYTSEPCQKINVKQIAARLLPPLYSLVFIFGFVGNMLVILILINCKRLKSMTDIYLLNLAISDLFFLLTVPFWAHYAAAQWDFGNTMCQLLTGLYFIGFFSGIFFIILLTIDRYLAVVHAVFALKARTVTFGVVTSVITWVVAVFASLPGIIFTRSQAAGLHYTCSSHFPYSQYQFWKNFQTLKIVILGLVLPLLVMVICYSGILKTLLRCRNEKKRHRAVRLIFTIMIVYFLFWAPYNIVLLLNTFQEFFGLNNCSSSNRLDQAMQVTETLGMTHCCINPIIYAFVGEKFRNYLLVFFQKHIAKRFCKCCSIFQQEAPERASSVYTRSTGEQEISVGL

T6: CCR5 H175A, HA-tagged (human, UniProt P51681 1-352)
T6 sequence: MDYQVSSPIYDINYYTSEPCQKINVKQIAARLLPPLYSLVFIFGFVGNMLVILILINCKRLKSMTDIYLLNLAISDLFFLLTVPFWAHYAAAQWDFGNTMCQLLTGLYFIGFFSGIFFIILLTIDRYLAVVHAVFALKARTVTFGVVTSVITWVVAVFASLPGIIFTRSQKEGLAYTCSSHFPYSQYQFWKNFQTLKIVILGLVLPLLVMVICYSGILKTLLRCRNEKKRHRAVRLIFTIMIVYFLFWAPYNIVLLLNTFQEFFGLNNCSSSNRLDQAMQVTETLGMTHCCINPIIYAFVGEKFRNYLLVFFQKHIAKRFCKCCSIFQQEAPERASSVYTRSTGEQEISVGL

T7: CCR5 Q188A, HA-tagged (human, UniProt P51681 1-352)
T7 sequence: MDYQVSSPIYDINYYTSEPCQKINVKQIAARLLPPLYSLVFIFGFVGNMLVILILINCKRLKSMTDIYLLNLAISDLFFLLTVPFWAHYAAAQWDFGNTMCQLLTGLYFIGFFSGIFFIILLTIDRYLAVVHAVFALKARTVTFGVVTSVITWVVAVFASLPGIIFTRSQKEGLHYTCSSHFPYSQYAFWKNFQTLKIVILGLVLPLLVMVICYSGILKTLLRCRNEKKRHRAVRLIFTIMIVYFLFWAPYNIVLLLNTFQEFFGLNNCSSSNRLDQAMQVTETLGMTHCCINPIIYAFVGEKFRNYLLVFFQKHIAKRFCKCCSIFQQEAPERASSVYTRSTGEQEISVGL


Key:
Assay in all cases: cell-based or functional assay
CCR5 N13A, HA-tagged = molecular target: T1, CCR5 N13A, HA-tagged
CCR5 R31A, HA-tagged = molecular target: T2, CCR5 R31A, HA-tagged
CCR5 D95A, HA-tagged = molecular target: T3, CCR5 D95A, HA-tagged
CCR5 Q102A, HA-tagged = molecular target: T4, CCR5 Q102A, HA-tagged
[1] = molecular target: T5, CCR5 K171A/E172A, HA-tagged
CCR5 H175A, HA-tagged = molecular target: T6, CCR5 H175A, HA-tagged
CCR5 Q188A, HA-tagged = molecular target: T7, CCR5 Q188A, HA-tagged

Row | Binder | relative % inhibition of NLluc/JR-FL entry into U87MG-CD4 cells by 2 µg/ml chemokine (wild-type = 100) (CCR5 N13A, HA-tagged) [%] | relative % inhibition of NLluc/JR-FL entry into U87MG-CD4 cells by 2 µg/ml chemokine (wild-type = 100) (CCR5 R31A, HA-tagged) [%] | relative % inhibition of NLluc/JR-FL entry into U87MG-CD4 cells by 2 µg/ml chemokine (wild-type = 100) (CCR5 D95A, HA-tagged) [%] | relative % inhibition of NLluc/JR-FL entry into U87MG-CD4 cells by 2 µg/ml chemokine (wild-type = 100) (CCR5 Q102A, HA-tagged) [%] | relative % inhibition of NLluc/JR-FL entry into U87MG-CD4 cells by 2 µg/ml chemokine (wild-type = 100) [1] [%] | relative % inhibition of NLluc/JR-FL entry into U87MG-CD4 cells by 2 µg/ml chemokine (wild-type = 100) (CCR5 H175A, HA-tagged) [%] | relative % inhibition of NLluc/JR-FL entry into U87MG-CD4 cells by 2 µg/ml chemokine (wild-type = 100) (CCR5 Q188A, HA-tagged) [%]
1 | macrophage inflammatory protein (MIP)-1β, recombinant human (ligand, UniProt P13236 24-92, looked up) APMGSDPPTACCFSYTARKLPRNFVVDYYETSSLCSQPAVVFQTKRSKQVCADPSESWVQEYVYDLELN | 93 | 2 | 112 | 98 | 97 | 100 | 75
2 | RANTES, recombinant human (ligand) SPYSSDTTPCCFAYIARPLPRAHIKEYFYTSGKCSNPAVVFVTRKNRQVCANPEKKWVREYINSLEMS | 92 | -16 | 121 | 93 | 107 | 95 | 51

Source: patent publication US20040086528A1 (PROGENICS PHARMACEUTICALS, published 2004)
